In one test the target is T1, human Ang2-RBD-muFc (human, UniProt O15123 275-496, limits assumed).
T1 construct: also called Human ANG2 (KinExA); not shown: murine Fc (muFc)
T1 sequence: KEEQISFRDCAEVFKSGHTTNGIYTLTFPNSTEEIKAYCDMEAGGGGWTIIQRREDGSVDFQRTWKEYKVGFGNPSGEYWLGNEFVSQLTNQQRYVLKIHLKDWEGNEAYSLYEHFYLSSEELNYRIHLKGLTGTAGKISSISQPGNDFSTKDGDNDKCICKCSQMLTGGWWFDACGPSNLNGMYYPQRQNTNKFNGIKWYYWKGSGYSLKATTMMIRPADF
The test is described as follows: KinExA, human ANG2 (Ang2-RBD-muFc) by the table's title; the column's head prints VEGFA-121. The method, then:
All KinExA® experiments were performed at room temperature (RT) using PBS pH 7.4 with 0.01% BSA and 0.01% Tween® 20 (BioRad, #161-0781) as running buffer. […] A flow rate of 0.25 ml/min was used. A constant amount of Ang2-RBD-muFc (50 pM and in a second experiment 500 pM) was titrated with tested antibody by twofold serial dilution starting at 4 nM (concentration range 1.95 pM-4000 pM). Antigen-antibody complexes were incubated at RT for at least 8 h to allow equilibrium to be reached. Equilibrated mixtures were then drawn through a column of Anti-Ang2 antibody (MAB098) coupled beads in the KinExA® system at a volume of 750 μl for 50 pM constant Ang2 and at a volume of 188 μl for 500 pM constant Ang2 permitting unbound Ang2 to be captured by the beads without perturbing the equilibrium state of the solution. Bound Ang2 was detected using a second biotinylated anti-Ang2 antibody (BAM0981) with a concentration of 250 ng/ml and following by an injection of 250 ng/ml Streptavidin Alexa Fluor™ 647 conjugate in sample buffer. Each sample was measured in duplicates for all equilibrium experiments. The KD was obtained from non-linear regression analysis of the data using a one-site homogeneous binding model contained within the KinExA® software (Version 4.0.11) using the “standard analysis” method. […]

For another test, the target named is T2, human VEGFA-165 (human, UniProt P15692-4 27-191).
T2 construct: also called hVEGF-A165
The test is described as follows: KinExA, VEGFA-165; set-up for VEGFA-165 not described.

Test [1] addresses T3, human VEGFA-121-His (human, UniProt P15692 181-395).
T3 construct: Prepared in-house; not shown: His tag
T3 sequence: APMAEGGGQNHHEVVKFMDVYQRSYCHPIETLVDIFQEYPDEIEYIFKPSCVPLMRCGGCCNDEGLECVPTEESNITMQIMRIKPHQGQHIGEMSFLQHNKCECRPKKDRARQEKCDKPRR
The test is described as follows: SPR crossreactivity set-up, VEGF-A121-His captured by anti-His antibody, Fab injected, single cycle kinetics. The protocol: (§1) An anti-His capturing antibody (GE Healthcare 28995056) was immobilized to a Series S Sensor Chip C1 (GE Healthcare BR100535) using standard amine coupling chemistry resulting in a surface density of approximately 600 resonance units (RU). As running and dilution buffer, HBS-P+ (10 mM HEPES, 150 mM NaCl pH 7.4, 0.05% Surfactant P20) was used. […] A dilution series of the tested antibody (3.7-300 nM, 1:3 dilution) was successively injected for 60 s each, dissociation was monitored for 3600 s at a flow rate of 30 μl/min (single cycle kinetics). The surface was regenerated by injecting 10 mM Glycine pH 1.5 for 60 s at a flow of 5 μl/min. […] Curve fitting was performed using the 1:1 Langmuir binding model within the Biacore® evaluation software.
(§2) Crossreactivity to VEGF-A and ANG2 from other species was assessed as described above in “Materials & general methods” section.

For the next test, the target named is T4, Mouse VEGF-A-121 (mouse, UniProt Q00731-3 27-146).
T4 construct: also called mouse VEGF-A121-His; not shown: His tag
T4 sequence (looked up): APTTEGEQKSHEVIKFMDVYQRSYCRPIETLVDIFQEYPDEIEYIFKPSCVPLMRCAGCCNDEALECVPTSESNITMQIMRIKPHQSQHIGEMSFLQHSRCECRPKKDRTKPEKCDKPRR
The description is as above. The protocol: as §1, §2

Test [2] deals with T3, human VEGFA-121-His. The test is described as follows: KinExA equilibrium titration in solution, VEGFA-121.
Test [3] deals with T3, human VEGFA-121-His. The test is described as follows: SPR, VEGF-A121-His captured by anti-His antibody, Fab injected, single cycle kinetics. The protocol:
as §1

A further test has as its target T5, human Ang2-RBD (human, UniProt O15123 275-496, limits assumed).
T5 construct: also called Human ANG2 (SPR); Angiopoietin 2-RBD
T5 sequence: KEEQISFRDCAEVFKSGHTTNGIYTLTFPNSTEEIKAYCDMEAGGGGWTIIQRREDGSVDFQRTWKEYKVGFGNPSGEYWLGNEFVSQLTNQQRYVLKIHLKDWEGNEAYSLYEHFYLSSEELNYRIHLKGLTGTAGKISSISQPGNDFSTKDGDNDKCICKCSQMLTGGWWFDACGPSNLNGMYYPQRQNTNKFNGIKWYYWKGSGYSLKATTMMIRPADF
The test is described as follows: SPR, Fab captured by anti-Fab antibody, Ang2-RBD injected, 25 C, 1:1 fit. The method, then: An anti-Fab capturing antibody (GE Healthcare 28958325) was immobilized to a Series S Sensor Chip C1 (GE Healthcare BR100535) using standard amine coupling chemistry resulting in a surface density of approximately 800 resonance units (RU). As running and dilution buffer, HBS-P+ (10 mM HEPES, 150 mM NaCl pH 7.4, 0.05% Surfactant P20) was used, the temperature of measurement was 25° C. The tested antibody was captured by injecting a 50 nM solution for 60 sec at a flow of 5 μl/min. Association was measured by injection of human Ang2-RBD in various concentrations in solution for 180 sec at a flow of 30 μl/min (0.07 nM-50 nM, 1:3 dilution). The dissociation phase was monitored for up to 900 sec and triggered by switching from the sample solution to running buffer at a flow rate of 30 μl/min. The surface was regenerated by injection of 10 mM Glycine pH 2.1 for 60 s at a flow rate of 30 μl/min. Bulk refractive index differences were corrected by subtracting blank injections and by subtracting the response obtained from the reference flow cell without captured tested antibody. Curve fitting was performed using the 1:1 Langmuir binding model within the Biacore® evaluation software.

B1: bispecific anti-VEGF-A/anti-ANG2 Fab fragment P1AD9820 (Fab, V domains shown)
VH: SEHLVESGGGLVKPGGSLRLSCATADFFEYDDMSWVRQAPGKGLEWVGSISPKGDHKYLNTKFIGRFTISRDDSKNTLYLQMNSLRAEDTAVYYCARDVGFFDWWGQGTLVTVSS
VL: AIYMHQEPSSLSASVGDRVTITCHGSYWLNSEVAWYQQKPGKAPKLLIFDGDFKVYEVPSRFSGSGSHEDYTLTISSLQPEDFATYYCQQYRYHPYTFGHGTKVEIKR
notes: Bispecific Fab with two paratopes in one VH/VL pair; also called P1AD9820 Fab
Regarding B1, the Kd was roughly 0.002 nM with human Ang2-RBD-muFc; roughly 0.002 nM with human VEGFA-165; 0.0455 nM with human VEGFA-121-His [1]; 0.368 nM in the test with Mouse VEGF-A-121; roughly 0.004 nM with human VEGFA-121-His [2]. For the same molecule, the koff came out at 2.21e-05 s⁻¹ in the test with human VEGFA-121-His [1] and 0.000183 s⁻¹ with Mouse VEGF-A-121. For the same molecule, the on-rate (kon) with human VEGFA-121-His [1] is 486000 M⁻¹ s⁻¹; with Mouse VEGF-A-121, 497000 M⁻¹ s⁻¹. Besides, the “t1/2” value came out at 8.72 h in the test with human VEGFA-121-His [1] and 1.05 h with Mouse VEGF-A-121.

B2: bispecific anti-VEGF-A/anti-ANG2 Fab fragment P1AA8906 (Fab, V domains shown)
VH: DFQLVESGGGLVKPGGSLRLSCAASYEFEYDDMSWVRQAPGKGLEWVGSISPKGGSTYYNTKFIGRFTISRDNSKNTLYLQMNSLRAEDTAVYYCARDVGFFDMWGQGTLVTVSS
VL: AIYMHQEPSSLSASVGDRVTITCHGSYWLSNYLAWYQQKPGKAPKLLIFDARWLVHGVPSRFSGSGSHEDYTLTISSLQPEDFATYYCQQYRYHPYTFGHGTKVEIKR
notes: Bispecific Fab with two paratopes in one VH/VL pair (DutaFab); CH1 and Ckappa
In the case of B2, the “t1/2” value in the test with human VEGFA-121-His [3] is 42.5 h. Besides, in the test with human Ang2-RBD, the Kd amounted to 4.55 nM, the dissociation rate constant (koff) amounted to 0.032 s⁻¹ and the kon was 7.03e+06 M⁻¹ s⁻¹.

For the origin of these results see patent US20220073599A1 (Hoffmann-La Roche, published 2022).
